Laboratory results from patent US20070265189A1 (published 2007).

Molecular target: T1, Soluble IGF-1R (sIGF-1R), R&D Systems Cat. # 391-GR/CF (UniProt P08069 31-935, limits assumed)
T1 construct: extracellular domain
Assay: phage ELISA

Binder | IGF-1R/IR comparison | Ratio over Background
LRIANLFYQRLWDLAFGGGG [20E2B-3-E8-IGFR] | 11.1 | 16.7
SSYGCDGFYLMLFSLGLVASQELEC [20C-3-A1-IGFR] | 13.7 | 20.8
PVGVQGFYEGLSRLVLGRGGW [20E2B-4-F8-IGFR] | 9.7 | 7.3
IQQELTFYDLLHRLVRSELGS [20E2B-3-D2-IGFR] | 11.7 | 12.4
SACQFDCHENFYDWFARQVSGGAAYG [H2CA-4-H8-IGFR] | 9.4 | 9.2
PGTDLGFYQALRCVVIQGACD [20E2B-2-B2-IGFR] | 8.1 | 4.9
VGYQGQGDENFYDWFIRQVSGRLGVQ [H2CA-4-F5-IGFR] | 12.3 | 9.7
RFSTDGFYQYLLALVGGGPVG [20E2B-1-A11-IGFR] | 9.7 | 9.5
PDLHKGFYAQLAQLIRGQLLS [20E2B-3-E3-IGFR] | 13.1 | 16.3

Now from value to binder:

IGF-1R/IR comparison | Ratio over Background | Binder
12.8 | 9.7 | YSCGDGFYSLLSDLLGGQFRC [20E2B-4-H12-IGFR]
12.9 | 39.9 | FYDAIDQLVRGSARAGGTRD [R20α-3-20E2-IR]
9.6 | 7.9 | NSRDGGFYLQLERLLGFPVTG [20E2B-3-D4-IGFR]
10.3 | 30.8 | DRAFYNGLRDLVGAVYGAWD [R20α-4-20C11-IR]
11.7 | 18.7 | RGMKEEVLVGGSTDPFYHKLSELLQGS [B6Hα-3-F11-IR]
8.9 | 15.6 | QPAPDGFYSALMKLIGRGGVS [20E2B-3-C8-IGFR]
11.3 | 17.7 | GGTEVDFYRALERLVRGQLGL [20E2B-3-D8-IGFR]

Molecular target: T2, soluble human insulin receptor-immunoglobulin heavy chain chimera (sIR-Fc; Bass et al., 1996) (human, UniProt P06213 28-956, limits assumed)
T2 construct: extracellular domain; also called soluble IR (Bass construct); not shown: immunoglobulin heavy chain constant domains
Assay: phage ELISA

Binder | IR/IGF-1R comparison | Ratio over Background
LRIANLFYQRLWDLAFGGGG [20E2B-3-E8-IGFR] | 0.1 | 1.5
SSYGCDGFYLMLFSLGLVASQELEC [20C-3-A1-IGFR] | 0.1 | 1.5
PVGVQGFYEGLSRLVLGRGGW [20E2B-4-F8-IGFR] | 0.1 | 0.8
IQQELTFYDLLHRLVRSELGS [20E2B-3-D2-IGFR] | 0.1 | 1.1
SACQFDCHENFYDWFARQVSGGAAYG [H2CA-4-H8-IGFR] | 0.1 | 1
PGTDLGFYQALRCVVIQGACD [20E2B-2-B2-IGFR] | 0.1 | 0.6
VGYQGQGDENFYDWFIRQVSGRLGVQ [H2CA-4-F5-IGFR] | 0.1 | 0.8
RFSTDGFYQYLLALVGGGPVG [20E2B-1-A11-IGFR] | 0.1 | 1
PDLHKGFYAQLAQLIRGQLLS [20E2B-3-E3-IGFR] | 0.1 | 1.3

More lines, now with the values ahead:

IR/IGF-1R comparison | Ratio over Background | Binder
0.1 | 0.8 | YSCGDGFYSLLSDLLGGQFRC [20E2B-4-H12-IGFR]
0.1 | 3.1 | FYDAIDQLVRGSARAGGTRD [R20α-3-20E2-IR]
0.1 | 0.8 | NSRDGGFYLQLERLLGFPVTG [20E2B-3-D4-IGFR]
0.1 | 3 | DRAFYNGLRDLVGAVYGAWD [R20α-4-20C11-IR]
0.1 | 1.6 | RGMKEEVLVGGSTDPFYHKLSELLQGS [B6Hα-3-F11-IR]
0.1 | 1.8 | QPAPDGFYSALMKLIGRGGVS [20E2B-3-C8-IGFR]
0.1 | 1.6 | GGTEVDFYRALERLVRGQLGL [20E2B-3-D8-IGFR]
